Data on one substance can be found in doi:10.1101/2024.10.21.619555.

For the assay, the target named is DR6 ECD-Halo (UniProt O75509). The assay is described as follows: single-molecule dual-color photobleaching.
DR6 ECD-Halo, sequence (O75509 42-349): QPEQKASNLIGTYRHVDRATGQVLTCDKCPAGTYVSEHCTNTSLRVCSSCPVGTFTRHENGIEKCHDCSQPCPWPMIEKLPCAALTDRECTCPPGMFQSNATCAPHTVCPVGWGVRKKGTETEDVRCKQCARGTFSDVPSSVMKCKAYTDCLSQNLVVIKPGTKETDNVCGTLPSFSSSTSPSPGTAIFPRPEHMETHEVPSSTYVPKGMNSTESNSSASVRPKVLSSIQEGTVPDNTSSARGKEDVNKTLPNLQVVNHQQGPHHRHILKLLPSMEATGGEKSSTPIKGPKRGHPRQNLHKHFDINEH

For “RBP4-SNAP (from UniProt P02753 19-201) (ligand)”, the stoichiometry N turned out to be 1.

One may read the stoichiometry N as a count of units in the complex or per binding partner.
